Experiment: protease stability score; higher = more stable; yeast display proteolysis, trypsin and chymotrypsin;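 note: relative to predicted unfolded state with 0 unfolded-like and 1 meaning tenfold more protease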

Sequence	protease stability score
DDNEELTERFMKHLIRAQQTGDWERLKELFDPNTRLIVGEKHVVGREHFINEWLEHHNKLGIDHSQIELHNLRIINGKAHIDGHFIEEFNGKRIEIRIEVVIVKINGRWLIKEIHFI	1.44
SEDEKIASEIAEYVERAFRTGNEEEWERYADPHVRTDVNGQDLIGRRTLEEMFHRIDHLHDSRMEIHDVKLVNGRIISDVRLHLDSHYNGVRFEWEHEVRIQVDKINGRWRVKFIEIR	0.428
SEDHEIARLAVEIETHSQLTGDEESMNHLLDPTTRININGRELHGREEAIEWMKRFMEQFDHVKVEVEDISIQGEKLIIRGRFSVIYDGRKVQDHTEVIIVKFNGRWHVKSVHIR	2.58
DEDEEEYRRMHEILDDALETGDEHTISRMADPHVRNEINGVKLHGREIWFEYMKRLLDHLGVDNIKIKIRLRHIDRQGDKVLSETRLHVYFNGVEERRRTSQVWLKIDGQWHLHHVSVE	0.869
SEWEKDLELALRFVMHAFTTGNWEDLLKFFDPDVRIEVGDKEIHGRHVFFEFLEKLGVKHLRLEIELNHFEIQGDKIHEHGIYRFTYHYNGRVEKKEHDTRVHVTKINGRWYLTHQRVD	0.668
DEEEKLATIVMELIEETWETGDEDLFEQLADPNVRVEIGDKVYIGREIALEWFVREIRKRGAELKHTTTHNLDVQGDKVNNDMKVNGNINGRVVIFTTHLDVRKINGKWFLRSISFK	1.29
DEEEKILEEFLEIWIEAVATGDEEVLEHLMDPNTRVHILVGDKTLDVHGMEFFKRHIKILGADHIEWRIRHKEVINGRIHTRGELILRQGDKERRIDVEIILVVVNGRLKNSEVRER	1.43
SEEEEHIREFWNLLLRAYRTGDEKQLRELFDPHVRIHINGKEIHGMEDMIRHIREIRVIITHLELREFSFFNGRAHVDGERDLRITVGEFHRSHRTDVTIITEKVNGQWRIEEVRVH	1.46
TEEEKLARFAWHLRLHAEETGNEELIETLMDPNVKIDIDINGREIHMIGREEYIRWFNEYGFKHVEHVDEREMRVQGDYLDIRGRVIFHVNGQRIDTETQHHILVVDGRIKEIHDIYH	1.69
DERHEHVREMSHRMEEWFETGDEDKWVKNADPNVITDINGQKLHGRENAARFLLHYHNRFKGMRFDIEDVDIQGEKVHIHSVQHFDGVKFDVRLIFEVFDGVIKSMHVEVK	0.706
DESKDDSRRAVNLVVRTIQTGDWDLLIELLDPNVKIEINGQDLHGRETLFKTWLDEMRKLGVDRVHVELKHIEVQGEKVIVHVDVSVNGRDIKTEIIIHKVDGKWFIKSLHFK	1.31
DENKKAFEEAVSWFRHTSETGDEELFNDLVDPDTRTNYNGVSYHGWKEYEEYLRLIRELLGIKVVKHVHIHSVDVQGDFIHMDVELNLHYNGRERIERSHIRAFKVNGRWRMKSMIVV	0.362
TEDERLFHETLKIFEHAVQTGDEEELERMLDPNVRSTINGVRLHGRESFRKLFHIIWREIRFESVDVKRIHIQGDKMIWFTRIDGIFNGQRDLREVTIFADKIDGRWIFKEVDVR	2.1
DEDHEDMRKILELLRTAYETGDERVHEHLLDPNTRLHIGEFNNVGWHNVLEFFEQHQKELGVKHIELRLEDFDKQGDFLIIHGRLIVNVNGKRINVHLEVHMHKVNGRWYDRERRVL	0.928
DEDREIAERFLRRWSHDTLTGDEDSLRDMVDPNVRLEYGDFTFHGREEWLKFFREIRVEDSHVHHMHVFNGQARIKLDFRVRFNGKELRTKVTLSVDKVDGRWIIRSIHFE	1.64
DEEEEQARDLTKLLEKLWATGDEHTLLRLLDPNARNIVGDKEHHGREILLKFWRHLGVSRVESKIEDVKVFDGRVYIKGRVRFDGVELETEIESEKVNGQWHIRIIRMR	1.79
SEWEHNLQRFIEELIEDARTGNEENIRENMDPDVRAEVDGQELHGREAQRFVRERIDVIKHNHLREIRFQGDFIHVRGELRGEVNGKEVHTDTHFVIWKFNGRWIIRHVLIR	1.03
TEEEEHIRRLAEELMHNIRTGDEDTLVDLFDPDTKLHVHQGDKEIVFHGMEEIFDWWEKLLSEIRIEIRIRSIKYIGDKAHVHTEVIWRFNGREHRIESEIEFVLINGKVERIHISFI	2.27

Sequence	protease stability score
DEDEDESRRFHEEFIKRILTGDEDEFVKLLDPDVRIEIGDKKSIGRERALERFHRMLTEIRVHHVELRERTIQGDKVFLNMEVDLEFNGRRDRTKFHMIIWKVDGQWTLSEMRVK	2.48
DHEDHLSELAEHLIHHHWLTGDEHLLERMADPHAQIIIGDKHLHGREEVSRWLIEFMHKFKNMRLQIDHRHLIDGRLHVEVTINIGDKRLKVHRHSIKINGQWHLKSIIIE	1.09
SDLDRLLEEMAKRFVEVMLTGDEEIMKELIDPNARVDWDGVEIHGWKEISEWLKEEIERQENYRYEFEFRDLDVIGNKAVFFTDLHFNINGRRIRTHSVYKVNVVNGKVKHVHVEIR	1.21
SEDKELADRFLNHITHLIRTGDENALSENLDPNTRLHIGDKHYIGWEEFLRIISERWKRADHQDVKLRDSRVQGDKVHLDGEIILIVDGKEIRHDFRIIVYKIDGRWHLESIRIG	2.09
DREEEEVRRARKLWVDWAETGDEESIFKNADPRTRVDINGKILHGMEIYKKESEKLGIDNIEFRVDDVRVFDGRLEMDGELIVNGRSIRVHIYSRKIDGRWVLTSINFI	0.872
SEDEEMLRKILELLVESLLTGDWKTVARLADPHVRLEIGDKIFHGRERFIDHLKLLGIDHIEIRLRDMKIIGDKLDTEVEVVERVGDKEIHRDTTLHIRKVNGRWLIKKVILE	2.01
SEIERDVHELIKEVSELTHTGNEEHSKMLLDPNYRVEIGDKTIHGRHLVSHWIKQMRSDITVEIREVRLIDGRLLADIRFVVRIRFDGVELHIEERRVLFWLKVDGQWIIESQRVH	0.827
DDWEKLYEELTRLWLKLLITGDEEILIKLMDPHYRYHQGDKELHGRESYAEEVRREYEHARVKIHVERIHVFENHVEVNGELKIEINGRHYSIRTRIHLNIVNGKIKSIEIRTD	1.39
DEDVKLALHIIHLFIRALSTGNEELVKTYADPHWRLEIGDKILHGMDEWKEDLKELRIYYHHVTFRDYEIIDGRIIIHTELDGRLEVGDYEQRIRTRTHVFVDKINGRWDITHVEVR	1.2
DESDKEREDVFRSWIESMRTGDEKNMRELMDPHARTEIGDKEYHGREVVEYIRREWRITHVELHRIEKQGDKIISHGHDEINIDGRKLYIHSRIIARKVNGVWIIESLEFH	1.29
SEDEETVHEWFEVLRRDWATGNEENLMKLLDPHARLIIDGRELHGREHIIEFLRRHREHLGVTNIHVEFHIDNRKIFNGKVEVKGTLTIRINGKEEEREVILIIEKIDGRWYIKNLEIR	0.552
SEEDEHLERLFRDLIDSFVTGDEDSWHQLADPNARLIVGDKTYHGREKISEYWRRMREEIRVEIKVDHVDIQGDKVHSRVTLIVRINGREIRRDTHMLIIVWNGRFKEERIIPR	1.25
RSEEHEAKDKVREWVEAYLTGDEDHLRRLHDPDMRFNWNGVEIHGMEEFSHWMHKYMYELGVDHTHVTVRHIEFYGDKIHADTKLFIRQGDKEREHHSQVHIEVINGQFKRLEIREH	0.829
DEFREIIRRAMEIYRHSERTGDEDTIREMVDPDVKLDIDGKEIVGWERLLEFLTRVDHIHLHLNNMKLQGDYVIHDGELRLNIDGRNISTRIVIIAEKVNGRWHMKHVEFR	1.24
DEDYENFERFLKEWSHSVLTGNEDRLMELADPHTRLNINGVDIHGREEVLKFEHEHLKRVKGATLRRVRVRHYSFVNGVAFVETEFDGHINGVDYRLETEMHIHKFNGVWRMKHIEKK	0.956
SEVEELSRRVAEFTWEVLRTGDERLLREMIDPNVRMEIDGQEYHGMELLVEHWIKLHQKFPNLKLHLREVRVIDGVAHVRLEVRFNGVRLEIEVVITKINGRWSNTFVHETDR	1.13
DEDEEQLRKWTRLTWRDMITGNEDSLHRLFDPHTRLDIDGVDVHGMESVSRKISDEMKRFDHVDFHLHDMRIFNGRAHIDGRLRFHINGVHLERREVIVILKINGQWFNEQISYK	0.196
DELEHMVRLLLKIWIHALITGDEELMMDQADPNVRLIIGDKIHHGMETFEEWVHQFKNLTVKHIVLRHTHYQGNKARIVGHLDIEINGRHHRLQTEIVIHKFNGKWYISDLRFD	0.646

From the NTF2 design screens of Basanta et al. (2020)
